Laboratory results as given in publication PMC9089796, “Oxidative stress promotes fibrosis in systemic sclerosis through stabilization of a kinase-phosphatase complex” (JCI Insight, 2022).

Biological target: T1, full-length human SRC, purified (human, UniProt P12931 1-536)
T1 construct: also called full-length SRC; not shown: GST, N-terminal, cleaved
Test: pull-down; His6-tagged PTP4A1 on Ni-NTA agarose beads (untreated, or treated with 0.5 mM H2O2 or 20 mM DTT for 1 hour); 0.5 μg SRC or 17.2 nmol GST-tagged SH3SH2 in 1 mL 60 mM HEPES pH 7.4, 5 mM MgCl2, 5 mM MnCl2, 1% BSA; 4°C, 2 hours; Western blotting
Settings: both partners purified

Row | Binder | binding result
1 | His6-tagged oxidized PTP4A1 (residues 1-160), bound to Ni-NTA agarose (domain or fragment, human, UniProt Q93096 1-160, looked up, oxidized: disulfide bond between Cys104 and Cys49, also called oxo-PTP4A1; source: E. coli BL21 (DE3), purified (Ni-NTA, cation exchange); beads incubated with 0.5 mM H2O2 for 1 hour; not shown: His6, N-terminal, kept) MARMNRPAPVEVTYKNMRFLITHNPTNATLNKFIEELKKYGVTTIVRVCEATYDTTLVEKEGIHVLDWPFDDGAPPSNQIVDDWLSLVKIKFREEPGCCIAVHCVAGLGRAPVLVALALIEGGMKYEDAVQFIRQKRRGAFNSKQLLYLEKYRPKMRLRF | binds
2 | His6-tagged PTP4A1 (residues 1-160), untreated, bound to Ni-NTA agarose (domain or fragment, human, UniProt Q93096 1-160, looked up, Not treated with H2O2 or DTT; also called protein tyrosine phosphatase 4A type 1; untreated beads containing both oxidized and reduced PTP4A1; source: E. coli BL21 (DE3), purified (Ni-NTA, cation exchange); not shown: His6, N-terminal, kept) MARMNRPAPVEVTYKNMRFLITHNPTNATLNKFIEELKKYGVTTIVRVCEATYDTTLVEKEGIHVLDWPFDDGAPPSNQIVDDWLSLVKIKFREEPGCCIAVHCVAGLGRAPVLVALALIEGGMKYEDAVQFIRQKRRGAFNSKQLLYLEKYRPKMRLRF | binds
